Experimental data reported in patent US20070134256A1 (US Dept. of Health and Human Services, published 2007).
Where two headings read alike, the source gives them in different places.

Legend:
[1] = molecular target: T1, DENV-2 antigenic variant NGB-V2 (dengue type 2 virus)
[2] = molecular target: T2, DENV-2 antigenic variant NGB-V1 (dengue type 2 virus)
[3] = molecular target: T3, dengue type 4 virus (DENV-4), strain 814669, virions (dengue type 4 virus, UniProt P09866 280-774; P09866 114-279); assay: cell-based or functional assay
[4] = molecular target: T4, dengue type 1 virus (DENV-1), Western Pacific strain, virions (dengue type 1 virus, UniProt P17763 281-775; P17763 115-280); assay: cell-based or functional assay
[5] = molecular target: T5, dengue type 2 virus (DENV-2), prototype New Guinea C strain, virions (dengue type 2 virus, UniProt P14340 281-775; P14340 115-280); assay: cell-based or functional assay
[6] = molecular target: T6, dengue type 3 virus (DENV-3), strain H87, virions (dengue type 3 virus, UniProt P27915 281-773; P27915 115-280); assay: cell-based or functional assay
[7] = molecular target: T7, DENV-4 mutant containing Leu107Phe (dengue type 4 virus, UniProt P09866 280-774); assay: ELISA Kd
T7 construct: Mutant virus; also called mutant Leu107Phe

[8] = molecular target: T3, dengue type 4 virus (DENV-4), strain …; assay: ELISA Kd
[9] = molecular target: T7, DENV-4 mutant containing Leu107Phe; assay: cell-based or functional assay
[10] = molecular target: T3, dengue type 4 virus (DENV-4), strain …; assay: cell-based or functional assay; remark: listed apart in the source
WNV/DENV-4 chimera = WNV/DENV-4 chimera (West Nile virus); assay: cell-based or functional assay
[11] = molecular target: DENV-2 NGB-V1/DENV-4 chimera (dengue type 2 virus); assay: cell-based or functional assay
[12] = molecular target: T1, DENV-2 antigenic variant NGB-V2; assay: cell-based or functional assay
[13] = molecular target: T2, DENV-2 antigenic variant NGB-V1; assay: cell-based or functional assay
[14] = molecular target: DENV-2 NGB-V2/DENV-4 chimera (dengue type 2 virus); assay: cell-based or functional assay
[15] = molecular target: DENV-2 New Guinea C (NGC) parent virus, mouse-adapted (dengue type 2 virus, UniProt P14340 281-775); assay: cell-based or functional assay
[16] = molecular target: chimeric DENV-2 (NGB-P)/DENV-4 (dengue type 2 virus); assay: cell-based or functional assay
[17] = molecular target: T1, DENV-2 antigenic variant NGB-V2; assay: ELISA Kd against parental DENV-2 NGB
[18] = molecular target: T2, DENV-2 antigenic variant NGB-V1; assay: ELISA Kd against parental DENV-2 NGB
[19] = molecular target: T3, dengue type 4 virus (DENV-4), strain …; assay: ELISA, virion-coated plate, Fab from ~140 µg/ml
[20] = molecular target: T4, dengue type 1 virus (DENV-1), Western …; assay: ELISA, virion-coated plate, Fab from ~140 µg/ml
[21] = molecular target: T5, dengue type 2 virus (DENV-2), prototype …; assay: ELISA, virion-coated plate, Fab from ~140 µg/ml
[22] = molecular target: T6, dengue type 3 virus (DENV-3), strain …; assay: ELISA, virion-coated plate, Fab from ~140 µg/ml
[23] = molecular target: T3, dengue type 4 virus (DENV-4), strain …
[24] = molecular target: T4, dengue type 1 virus (DENV-1), Western …
[25] = molecular target: T5, dengue type 2 virus (DENV-2), prototype …
[26] = molecular target: T6, dengue type 3 virus (DENV-3), strain …
[27] = molecular target: T8, Langat virus (LGTV) strain TP 21 (Langat virus, UniProt P29837 281-776); assay: cell-based or functional assay
T8 sequence: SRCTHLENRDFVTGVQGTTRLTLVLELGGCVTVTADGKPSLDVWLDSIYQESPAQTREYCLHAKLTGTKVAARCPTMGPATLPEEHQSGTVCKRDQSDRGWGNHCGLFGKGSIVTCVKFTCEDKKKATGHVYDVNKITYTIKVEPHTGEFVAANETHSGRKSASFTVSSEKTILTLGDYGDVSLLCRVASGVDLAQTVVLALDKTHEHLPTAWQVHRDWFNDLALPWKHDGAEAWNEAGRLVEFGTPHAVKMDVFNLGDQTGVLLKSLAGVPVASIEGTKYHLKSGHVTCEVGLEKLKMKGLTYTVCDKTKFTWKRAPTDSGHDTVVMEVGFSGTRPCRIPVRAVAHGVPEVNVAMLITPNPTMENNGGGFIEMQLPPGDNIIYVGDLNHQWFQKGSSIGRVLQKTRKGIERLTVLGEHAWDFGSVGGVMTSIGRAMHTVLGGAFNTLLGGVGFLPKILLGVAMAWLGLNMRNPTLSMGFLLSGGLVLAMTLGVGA

[28] = molecular target: Japanese encephalitis virus (JEV) vaccine strain SA14-14-2 (Japanese encephalitis virus); assay: cell-based or functional assay
[29] = molecular target: DENV-2 New Guinea B (NGB) parent virus (dengue type 2 virus); assay: cell-based or functional assay
DENV-1 strain Hawaii = DENV-1 strain Hawaii (dengue type 1 virus); assay: cell-based or functional assay
[30] = molecular target: T6, dengue type 3 virus (DENV-3), strain …; assay: cell-based or functional assay; remark: listed apart in the source
[31] = molecular target: T4, dengue type 1 virus (DENV-1), Western …; assay: ELISA, virion-coated plate
[32] = molecular target: T5, dengue type 2 virus (DENV-2), prototype …; assay: ELISA, virion-coated plate
[33] = molecular target: T6, dengue type 3 virus (DENV-3), strain …; assay: ELISA, virion-coated plate
[34] = molecular target: T4, dengue type 1 virus (DENV-1), Western …; assay: ELISA, virion-coated plate, Fab from ~300 µg/ml
[35] = molecular target: T5, dengue type 2 virus (DENV-2), prototype …; assay: ELISA, virion-coated plate, Fab from ~300 µg/ml
[36] = molecular target: T6, dengue type 3 virus (DENV-3), strain …; assay: ELISA, virion-coated plate, Fab from ~300 µg/ml
DENV-4 E glycoprotein [37] = molecular target: T9, DENV-4 E glycoprotein (dengue type 4 virus, UniProt P09866 280-774); assay: radioimmunoprecipitation of E expressed alone by recombinant vaccinia virus
T9 construct: also called vDENV-4 E product

DENV-4 E glycoprotein [38] = molecular target: T9, DENV-4 E glycoprotein; assay: radioimmunoprecipitation
[39] = molecular target: T3, dengue type 4 virus (DENV-4), strain …; assay: ELISA, virion-coated plate, Fab from ~300 µg/ml
[40] = molecular target: T3, dengue type 4 virus (DENV-4), strain …; assay: cell-based or functional assay; remark: listed apart in the source

B1: chimpanzee Fab 1A5 (Fab, V domains shown)
VH: EVQLLESGGGLVQPGGSRRLSCAASGFTISDNVMHWVRQAPGKGLEWVALIYSADTTHYADSVKGRFTISRDNSKNTLYLQMDSLRPEDTAVYYCAREYCTGDTCFAHFDYWGQGTLVSVSS
VL: ELQMTQSPSSVSASVGDTVTIACRASQSITNYLSWYQQKPGKAPKLLIYHASTLQSGIPSRFSGSGSGTDFTLTISSLQPDDFATYYCHYGYGTHTFGQGTKLEIKR
- Kd [1]: 37.8 nM
- Kd [2]: 0.75 nM
- PRNT50 titer [3]: 4.23 µg/mL
- PRNT50 titer [4]: 0.49 µg/mL
- PRNT50 titer [5]: 0.77 µg/mL
- PRNT50 titer [6]: 3.49 µg/mL
- Kd [7]: 3.07 nM
- Kd [8]: 0.65 nM
- PRNT50 titer [9]: ~50 µg/mL
- PRNT50 titer [10]: 4.3 µg/mL
- PRNT50 titer (WNV/DENV-4 chimera): 4.8 µg/mL
- PRNT50 titer [11]: 31.7 µg/mL
- PRNT50 titer [12]: > 70 µg/mL
- PRNT50 titer [13]: 12 µg/mL
- PRNT50 titer [14]: > 70 µg/mL
- PRNT50 titer [15]: 0.89 µg/mL
- PRNT50 titer [16]: 0.64 µg/mL
- Affinity Reduction (fold) [17]: 80.3 fold
- Affinity Reduction (fold) [18]: 1.6 fold
- ELISA titer of Fab binding [19]: 3.8 log10 of reciprocal dilution
- ELISA titer of Fab binding [20]: 4.1 log10 of reciprocal dilution
- ELISA titer of Fab binding [21]: 3.8 log10 of reciprocal dilution
- ELISA titer of Fab binding [22]: 3.8 log10 of reciprocal dilution

B2: humanized IgG1 1A5 (antibody, V domains shown)
VH: EVQLLESGGGLVQPGGSRRLSCAASGFTISDNVMHWVRQAPGKGLEWVALIYSADTTHYADSVKGRFTISRDNSKNTLYLQMDSLRPEDTAVYYCAREYCTGDTCFAHFDYWGQGTLVSVSS
VL: ELQMTQSPSSVSASVGDTVTIACRASQSITNYLSWYQQKPGKAPKLLIYHASTLQSGIPSRFSGSGSGTDFTLTISSLQPDDFATYYCHYGYGTHTFGQGTKLEIKR
- Kd [23]: 0.82 nM
- Kd [24]: 0.5 nM
- Kd [25]: 0.6 nM
- Kd [26]: 0.67 nM
- PRNT50 titer [27]: 28 µg/mL
- PRNT50 titer [28]: 21 µg/mL
- PRNT50 titer [10]: 4.3 µg/mL
- PRNT50 titer (WNV/DENV-4 chimera): ~3.8 µg/mL
- PRNT50 titer [29]: 0.95 µg/mL
- PRNT50 titer (DENV-1 strain Hawaii): 0.48 µg/mL
- PRNT50 titer [30]: 3.2 µg/mL

B3: chimpanzee Fab 5H2 (Fab, V domains shown)
VH: EVQLLESGPGLVKPSETLSLTCTVSGGSISDFYWSWLRQSPGKGLEWIGYAHSRVSAYYNPSLKSRVTISVDTSKNQLSLRLSAVTAADTALYYCARQGTGTTGVSEDPFDLWGQGTKVIVSL
VL: ELQMTQSPSSLSASVGDRVTITCRASQDISIRLNWYQQKPGKAPKLLIYDASTLESGVPSRFSGSGSGTDFTLTISSLQPEDFATYYCQQFNSYPLTFGGGTKVEIKR
- binding result [31]: no binding
- binding result [32]: no binding
- binding result [33]: no binding
- ELISA titer of Fab binding [34]: < 1 log10 of reciprocal dilution
- ELISA titer of Fab binding [35]: < 1 log10 of reciprocal dilution
- ELISA titer of Fab binding [36]: < 1 log10 of reciprocal dilution
- ELISA titer of Fab binding [20]: < 1 log10 of reciprocal dilution
- ELISA titer of Fab binding [21]: < 1 log10 of reciprocal dilution
- ELISA titer of Fab binding [22]: < 1 log10 of reciprocal dilution
- binding result (DENV-4 E glycoprotein [37]): binds

B4: chimpanzee Fab 5A7 (Fab, V domains shown)
VH: EVQLLESGGGLVQPGGSLRLSCAASGVTFSSYWMHWVRQAPGKGLEWVSRINSDGSSTNYADSVEGRFTISRDNAKNTLYLQMNSLRAEDTAVYYCSRGGLWDWSPRRIEETKTPFDYWGQGTLVTVSS
VL: ELTQGPATLSLSPGERATLSCRAGQSLDSSLLSWYQQKPGQAPRLLMYDASTRAPGVPARFSGSGSGTDFTLTISSLQPEDFAVYYCQQHYNLPRTFGQGTKLEIKR
- binding result (DENV-4 E glycoprotein [38]): no binding
- ELISA titer of Fab binding [39]: 3.41 log10 of reciprocal dilution
- ELISA titer of Fab binding [34]: 2.51 log10 of reciprocal dilution
- ELISA titer of Fab binding [35]: 2.51 log10 of reciprocal dilution
- ELISA titer of Fab binding [36]: 2.51 log10 of reciprocal dilution
- PRNT50 titer [40]: > 200 µg/mL
